Biological target: R6A/Q72R
Experiment: SPR

Kd: 18.8 µM
B1: 10LH (scFv)
scFv: SRNGGDGQSVLTQPPSVSVSPGQTASITCSGDSLGNKYACWYQQKPGQSPVLVIYQDSKRPSGIPERFSGSNSGNTATLTISGTQAMDEADYYCQAWDSSRGYTVVFGTGTKVTVSSQTGGSGGGGSGGGGSGGGGSEVQLLESGGGLVQPGGSLRLSCAASGFTFDSYAMSWVRQAPGKGLEWVSAISGYGGSTYYADSVKGRFTISRDNSKNTLYLQMNSLRAEDTAVYYCAKYTYFLDAFDIWGQGTMVTVSSS

From patent US20260243766A1 (published 2026)
